B4: UPF2-AL (domain or fragment, human, UniProt Q9HAU5 1015-1106, looked up)
chain: NDKDSKDSMTEGENLEEDEEEEEGGAETEEQSGNESEVNEPEEEEGSDNDDDEGEEEEEENTDYLTDSNKENETDEENTEVMIKGGGLKHVP
modifications: 15N-labelled (15N/13C for the assignments) in the NMR experiments

Assay [1] has as its target T1, 3’hExofl (human, UniProt Q8IV48 1-349).
T1 sequence (looked up): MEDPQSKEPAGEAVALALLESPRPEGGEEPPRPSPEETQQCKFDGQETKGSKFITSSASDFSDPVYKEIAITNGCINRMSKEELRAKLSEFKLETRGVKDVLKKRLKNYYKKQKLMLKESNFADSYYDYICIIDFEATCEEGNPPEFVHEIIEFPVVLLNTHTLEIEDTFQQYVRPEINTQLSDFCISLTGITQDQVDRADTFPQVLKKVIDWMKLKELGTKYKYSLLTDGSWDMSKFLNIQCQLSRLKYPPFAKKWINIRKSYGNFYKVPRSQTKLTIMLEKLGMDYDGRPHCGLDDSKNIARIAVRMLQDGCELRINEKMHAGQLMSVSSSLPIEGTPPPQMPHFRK
The experiment in a line: NMR titration.

Assay [2] concerns the target UPF2 (construct of the SPR experiment not stated) (human). Description: SPR. (SPR reads the build-up and loss of mass on a sensor chip optically.)
The assay “UPF2-AL” has as its target B4. The experiment in a line: NMR titration.
The target in the next assay is T2, 3’hExo nuclease domain (human, UniProt Q8IV48 124-349).
T2 sequence (looked up): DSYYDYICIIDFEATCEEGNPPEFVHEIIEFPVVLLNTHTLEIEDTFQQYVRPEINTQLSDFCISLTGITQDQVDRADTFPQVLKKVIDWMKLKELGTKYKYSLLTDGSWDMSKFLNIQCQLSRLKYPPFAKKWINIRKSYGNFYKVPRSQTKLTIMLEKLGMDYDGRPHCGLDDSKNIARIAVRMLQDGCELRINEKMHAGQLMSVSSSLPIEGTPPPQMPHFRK
Description: NMR titration.

The target in assay [3] is T1, 3’hExofl. Description: SEC.

UPF2 (construct of the SPR experiment not stated) (human), sequence (Q9HAU5 whole entry): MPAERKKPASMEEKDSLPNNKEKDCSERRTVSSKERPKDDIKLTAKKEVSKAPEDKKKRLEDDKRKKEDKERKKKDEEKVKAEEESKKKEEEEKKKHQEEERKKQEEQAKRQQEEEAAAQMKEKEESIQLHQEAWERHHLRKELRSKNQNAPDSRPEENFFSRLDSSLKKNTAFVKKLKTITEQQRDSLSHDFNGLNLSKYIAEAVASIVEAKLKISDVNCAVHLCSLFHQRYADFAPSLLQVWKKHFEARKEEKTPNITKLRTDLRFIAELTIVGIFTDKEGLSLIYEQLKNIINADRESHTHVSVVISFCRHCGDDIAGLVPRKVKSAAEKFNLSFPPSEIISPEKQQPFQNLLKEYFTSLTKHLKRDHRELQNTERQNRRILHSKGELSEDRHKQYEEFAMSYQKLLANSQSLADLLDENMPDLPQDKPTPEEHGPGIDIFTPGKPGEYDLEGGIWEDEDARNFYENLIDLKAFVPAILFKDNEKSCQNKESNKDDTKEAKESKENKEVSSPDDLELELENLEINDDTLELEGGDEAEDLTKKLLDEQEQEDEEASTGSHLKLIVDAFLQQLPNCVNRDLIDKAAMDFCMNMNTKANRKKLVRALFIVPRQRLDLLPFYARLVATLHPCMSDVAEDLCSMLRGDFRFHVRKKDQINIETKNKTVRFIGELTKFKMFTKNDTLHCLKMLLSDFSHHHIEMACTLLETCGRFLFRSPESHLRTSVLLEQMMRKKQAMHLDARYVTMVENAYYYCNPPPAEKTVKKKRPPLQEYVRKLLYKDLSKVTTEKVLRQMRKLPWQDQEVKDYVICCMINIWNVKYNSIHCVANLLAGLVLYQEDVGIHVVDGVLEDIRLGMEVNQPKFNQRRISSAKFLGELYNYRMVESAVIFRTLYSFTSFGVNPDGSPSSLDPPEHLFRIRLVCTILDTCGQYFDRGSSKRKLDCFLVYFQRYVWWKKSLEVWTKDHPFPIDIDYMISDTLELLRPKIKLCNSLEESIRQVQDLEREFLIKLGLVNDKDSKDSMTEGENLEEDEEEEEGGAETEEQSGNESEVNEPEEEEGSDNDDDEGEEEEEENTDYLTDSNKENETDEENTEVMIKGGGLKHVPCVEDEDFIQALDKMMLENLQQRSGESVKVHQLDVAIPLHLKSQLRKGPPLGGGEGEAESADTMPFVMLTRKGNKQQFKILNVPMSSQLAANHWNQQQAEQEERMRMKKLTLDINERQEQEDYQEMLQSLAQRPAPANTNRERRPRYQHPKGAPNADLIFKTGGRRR

B1: UPF2^1024-1085 (domain or fragment, human, UniProt Q9HAU5 1024-1085, looked up)
chain: TEGENLEEDEEEEEGGAETEEQSGNESEVNEPEEEEGSDNDDDEGEEEEEENTDYLTDSNKE
modifications: also: 15N-labelled
For B1, in the assay with 3’hExofl [1], the Kd (as a rule, the free concentration of one partner at which half of the binding sites on the other are occupied at equilibrium, for simple one-to-one binding) is roughly 200 µM.

B2: 3’hExo (construct of the SPR experiment not stated) (enzyme)
chain: MEDPQSKEPAGEAVALALLESPRPEGGEEPPRPSPEETQQCKFDGQETKGSKFITSSASDFSDPVYKEIAITNGCINRMSKEELRAKLSEFKLETRGVKDVLKKRLKNYYKKQKLMLKESNFADSYYDYICIIDFEATCEEGNPPEFVHEIIEFPVVLLNTHTLEIEDTFQQYVRPEINTQLSDFCISLTGITQDQVDRADTFPQVLKKVIDWMKLKELGTKYKYSLLTDGSWDMSKFLNIQCQLSRLKYPPFAKKWINIRKSYGNFYKVPRSQTKLTIMLEKLGMDYDGRPHCGLDDSKNIARIAVRMLQDGCELRINEKMHAGQLMSVSSSLPIEGTPPPQMPHFRK
With B2, the Kd in assay [2] is 170 µM.

B3: 3’hExo SAP domain (domain or fragment, human, UniProt Q8IV48 63-124, looked up)
chain: DPVYKEIAITNGCINRMSKEELRAKLSEFKLETRGVKDVLKKRLKNYYKKQKLMLKESNFAD
As for B3, in the assay with UPF2-AL, the binding result is “binds”. Turning to B4, the binding result with 3’hExo nuclease domain and in the assay with 3’hExofl [3] was “binds” each time.

The values are drawn from article doi:10.1101/2025.02.23.639735 (bioRxiv, 2025).
